# Measurements: patent publication US20160272707A1 (COMPUGEN, published 2016)
# T1: mouse VSTM5 (SEQ ID NO:11) expressed on HEK-293T cells (mouse, UniProt Q9D806 28-199)
# T1 construct: also called mouse VSTM5 untagged
# T1 sequence: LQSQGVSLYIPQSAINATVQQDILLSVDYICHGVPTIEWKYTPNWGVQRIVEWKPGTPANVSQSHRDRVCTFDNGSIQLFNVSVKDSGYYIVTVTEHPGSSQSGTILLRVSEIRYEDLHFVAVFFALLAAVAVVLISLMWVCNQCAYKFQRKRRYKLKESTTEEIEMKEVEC
# T2: VSTM5 monomer (UniProt A8MXK1 29-147, limits assumed)
# T2 construct: also called monomeric VSTM5 antigen; VSTM5 antigen
# T2 sequence (looked up): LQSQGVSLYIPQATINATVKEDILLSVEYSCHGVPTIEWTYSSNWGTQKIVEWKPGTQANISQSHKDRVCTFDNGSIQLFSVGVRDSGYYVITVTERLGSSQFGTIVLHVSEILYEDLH
# B1: 49-01.F01 (antibody, V domains shown)
# VH: EVQLVESGGGVVKPGESLRLLCTASGLSFNKYSINWVRQAPGGGLEWVSSIESGSGHIYYADSLEGRFTISRDNAKNSVTLEMNSLRVEDTALYYCVSGPEDKWLLQLYFESWGQGTLVTVSS
# VL: EIVLTQSPATLSLSPGERATLSCRTSQSSPSDNLAWYQHKPGQAPRLLIYGGSNRATGIPARFSGSGSGTDFTLTISSLEPEDFAVYYCQQYGSSPLTFGGGTKVDIKR
# B2: 50-01.E02 (antibody, V domains shown)
# VH: QVQLVESGGGVVQPGGSLKLSCVASGFTFSAYAMNWVRLVPGKGLEWVSGISGNGYSTFYPDSVQGRFTVSRDNSKNTLFLQIDRLTGGDTAIYYCAKVQTTVITPFQNWGQGTLVTVSS
# VL: EIVLTQSPGTLSLSPGERATLSCRASQNIGSNFLAWYQQKPGQAPRLLIYGASTRANGIPDRFSGSKSETDFTLTISRLEPEDFAVYYCQQYDNSPYTFGQGTKLEIKR
# B3: 49-01.F05 (antibody, V domains shown)
# VH: QVQLQQWGAGLLKPSETLSLTCAVYGGSFSGYYWSWIRQPPGKGLEWIGEINHSGSTNYNPSLKSRVTISVDTSKNQFSLKLSSVTAADTAVYYCARGWRGGSFMDVWGQGTTVTVSS
# VL: QSALTQPRSVSGSPGQSVTISCTGTSSDVGGYNYVSWYQQHPGKAPKLMIYDVIKRPSGVPDRFSGSRSGNTASLTISGLQAEDEADYYCCSYAGTHWVFGGGTKLTVLG
# B4: 49-01.D06 (antibody, V domains shown)
# VH: QVQLVQSGAEVKKPGTSVKVSCKASGYTFTTYTMHWVRQAPGQRLEWMGWINTGNGNTKYSQKFQDRVTITRDTSASTAYMELSSLKFEDTAVYYCAREGVTIFGDHSYYYGMDVWGQGTTVTVSS
# VL: QPVLTQSSSASASLGSSVKLTCTLSSGHSSYIIAWHQQQPGKAPRYLMKLEGSGSYNKGSGLPDRFSGSSSGADRYLTISNLQSEDEADYYCETWDGNTWVFGGGTQLTVLG
# B5: 49-02.C11 (antibody, V domains shown)
# VH: EVQLVESGGGLVQPGGSLRLSCAASGFTFSSYAMTWVRQAPGKGLEWVSVISGGGGTTYYADSVKGRFTISRDNSKNTLYLQMSSLRAEDTAVYYCAKGYSSGWPYYFDYWGQGTLVTVSS
# VL: EIVLTQSPGTLSLSPGERATLSCRASQSGVTNFLAWYQQKPGQAPRLLIYATSSRATGIPDRFSGSASGTDFTLTITRLEPEDFAVYFCQQYASSPLTFGGGTKVEIKR
# notes: also called 49-02.011
# Legend:
# [1] = biological target: T3, human VSTM5-EGFP (SEQ ID NO:133) expressed on HEK-293 cells (human); test: FACS, IgG1 at 22 nM on 293-huVSTM5 (VSTM5-EGFP) cells; grade from ratio to 293-MT control cells (>2000)
# T3 construct: Full-length human VSTM5 fused at its C-terminus to EGFP; also called VSTM5_GFP
# [2] = biological target: T3, human VSTM5-EGFP (SEQ ID NO:133) …; test: FACS titration of the human IgG1 on 293-huVSTM5 cells, 293-MT control cells as open squares; y axis MFI (anti-Human A647)
# [3] = biological target: T1, mouse VSTM5 (SEQ ID NO:11) expressed on …; test: FACS titration on 293-muVSTM5 cells, panel 'Ab binding vs. mouse VSTM5'
# VSTM5 monomer [4] = biological target: T2, VSTM5 monomer; test: SPR, VSTM5 monomer binding to the IgG
# VSTM5 monomer [5] = biological target: T2, VSTM5 monomer; test: SPR, VSTM5 monomer binding to the IgG (equilibrium binding constant)
# [6] = biological target: T3, human VSTM5-EGFP (SEQ ID NO:133) …; test: FACS, IgG1 at 22 nM on 293-huVSTM5 (VSTM5-EGFP) cells; grade from ratio to 293-MT control cells (850-2000)
Binder,ratio of 293-huVSTM5 cell binding / 293-MT control cell binding (FACS) at 22 nM mAb [1] [ratio],EC50 (read off the curve) [2] [nM],binding result [3],Kd (VSTM5 monomer [4]) [nM],Kd (VSTM5 monomer [5]) [nM],ratio of 293-huVSTM5 cell binding / 293-MT control cell binding (FACS) at 22 nM mAb [6] [ratio]
B1,> 2000,~1,no binding,2,2,–
B2,–,~1,no binding,–,–,850 to 2000
B3,> 2000,–,no binding,190,190,–
B4,> 2000,–,no binding,–,–,–
B5,–,–,no binding,–,–,850 to 2000
